These results are taken from US20240353401, “Compositions and methods for detecting SARS-CoV-2 spike protein” (UNICORNFISH PTY LTD AS TRUSTEE FOR RCX UNIT TRUST, published 2024).

The target in one data set is SARS-CoV-2 spike protein (SARS-CoV-2, UniProt P0DTC2 P0DTC2:14-1213). As to the kind of experiment: cell-based or functional assay.
A further data set deals with HCoV-229E spike protein (Human coronavirus 229E, UniProt P15423 P15423:16-1115).
In another data set the target is HCoV-NL63 spike protein (Human coronavirus NL63, UniProt Q6Q1S2 Q6Q1S2:19-1296).
Sequence of HCoV-NL63 spike protein (Q6Q1S2 19-1296, one chain of several): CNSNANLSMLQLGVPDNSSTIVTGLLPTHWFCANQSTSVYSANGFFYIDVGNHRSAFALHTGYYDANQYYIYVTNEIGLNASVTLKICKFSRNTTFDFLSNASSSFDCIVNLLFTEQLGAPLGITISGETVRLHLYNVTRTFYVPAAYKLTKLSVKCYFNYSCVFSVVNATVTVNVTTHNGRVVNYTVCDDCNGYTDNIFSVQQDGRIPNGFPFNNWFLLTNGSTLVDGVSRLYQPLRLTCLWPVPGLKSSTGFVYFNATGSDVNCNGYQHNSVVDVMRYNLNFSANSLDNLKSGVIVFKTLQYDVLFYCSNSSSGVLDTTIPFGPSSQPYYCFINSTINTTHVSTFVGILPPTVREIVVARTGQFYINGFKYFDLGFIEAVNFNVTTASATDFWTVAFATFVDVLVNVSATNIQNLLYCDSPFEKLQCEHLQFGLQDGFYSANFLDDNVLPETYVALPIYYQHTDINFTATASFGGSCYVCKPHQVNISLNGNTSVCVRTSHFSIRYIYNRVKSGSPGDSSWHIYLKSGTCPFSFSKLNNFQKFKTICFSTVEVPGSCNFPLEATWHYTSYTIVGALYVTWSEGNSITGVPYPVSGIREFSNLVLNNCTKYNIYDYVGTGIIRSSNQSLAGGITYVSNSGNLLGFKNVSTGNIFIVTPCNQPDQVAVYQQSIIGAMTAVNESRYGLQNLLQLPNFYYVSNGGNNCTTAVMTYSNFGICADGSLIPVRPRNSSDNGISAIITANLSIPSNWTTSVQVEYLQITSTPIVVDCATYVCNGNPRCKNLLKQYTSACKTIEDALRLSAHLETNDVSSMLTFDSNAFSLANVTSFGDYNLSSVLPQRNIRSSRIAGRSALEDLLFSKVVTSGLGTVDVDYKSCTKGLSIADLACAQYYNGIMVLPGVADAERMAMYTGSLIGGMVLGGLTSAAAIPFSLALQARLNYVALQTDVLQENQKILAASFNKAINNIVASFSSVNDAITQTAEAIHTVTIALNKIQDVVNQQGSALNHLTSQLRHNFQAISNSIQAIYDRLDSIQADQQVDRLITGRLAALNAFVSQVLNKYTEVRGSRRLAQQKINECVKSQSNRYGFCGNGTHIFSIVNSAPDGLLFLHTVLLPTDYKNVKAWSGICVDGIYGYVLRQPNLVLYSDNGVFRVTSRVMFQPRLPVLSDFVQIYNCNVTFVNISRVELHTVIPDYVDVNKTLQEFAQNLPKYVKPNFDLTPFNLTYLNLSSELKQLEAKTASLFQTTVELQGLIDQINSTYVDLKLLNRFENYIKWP

Sequence of HCoV-229E spike protein (P15423 16-1115, one chain of several): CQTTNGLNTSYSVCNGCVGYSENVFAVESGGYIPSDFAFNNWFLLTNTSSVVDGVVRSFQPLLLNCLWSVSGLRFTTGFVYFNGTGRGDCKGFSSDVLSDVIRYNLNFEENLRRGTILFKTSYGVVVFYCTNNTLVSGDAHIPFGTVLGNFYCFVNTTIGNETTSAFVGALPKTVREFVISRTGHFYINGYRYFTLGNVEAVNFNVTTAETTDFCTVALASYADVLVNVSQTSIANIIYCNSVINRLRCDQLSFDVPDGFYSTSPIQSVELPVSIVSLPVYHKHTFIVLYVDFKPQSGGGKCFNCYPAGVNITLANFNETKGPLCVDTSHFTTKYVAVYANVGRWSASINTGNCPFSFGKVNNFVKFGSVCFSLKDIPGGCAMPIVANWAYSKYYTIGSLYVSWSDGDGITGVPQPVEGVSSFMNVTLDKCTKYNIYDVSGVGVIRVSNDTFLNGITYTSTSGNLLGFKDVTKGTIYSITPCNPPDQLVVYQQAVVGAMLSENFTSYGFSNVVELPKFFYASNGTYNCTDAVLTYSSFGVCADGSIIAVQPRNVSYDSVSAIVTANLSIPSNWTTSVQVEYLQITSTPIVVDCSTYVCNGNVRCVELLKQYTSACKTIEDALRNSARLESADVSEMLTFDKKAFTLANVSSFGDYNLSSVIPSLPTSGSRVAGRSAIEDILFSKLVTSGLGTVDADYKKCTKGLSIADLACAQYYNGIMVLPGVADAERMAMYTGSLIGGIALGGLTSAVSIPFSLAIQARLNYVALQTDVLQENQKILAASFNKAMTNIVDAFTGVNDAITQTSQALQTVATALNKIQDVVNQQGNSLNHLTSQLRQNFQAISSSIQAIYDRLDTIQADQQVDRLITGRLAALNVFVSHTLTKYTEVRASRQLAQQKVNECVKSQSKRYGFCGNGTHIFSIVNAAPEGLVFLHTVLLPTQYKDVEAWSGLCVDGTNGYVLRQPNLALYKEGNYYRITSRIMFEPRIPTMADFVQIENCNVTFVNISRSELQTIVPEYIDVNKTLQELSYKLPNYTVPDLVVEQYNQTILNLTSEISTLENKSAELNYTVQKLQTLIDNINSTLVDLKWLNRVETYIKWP

B1: DNA aptamer 5 (ssDNA)
DNA: ATCCAGAGTGACGCAGCAGGACTGCTTAGGATTGCGAAGCTGAGGAGCTCCCCCGCCTTGGACACGGTGGCTTAGT
On to B1, for which, in the data set with SARS-CoV-2 spike protein, the activity worked out at 9.7 nM.

B2: DNA aptamer 7 (ssDNA)
DNA: CAGCACCGACCTTGTGCTTTGGGAGTGCTGGTCCAAGGGCGTTAATGGACA
Turning to B2, the binding result with HCoV-229E spike protein and with HCoV-NL63 spike protein was “no binding” each time.

B3: DNA aptamer 6 (ssDNA)
DNA: ATCCAGAGTGACGCAGCAGTAGGGGGATTGGCTCCAGGGCCTGGCTGACGGTTGCACGTGGACACGGTGGCTTAGT
In turn, B3 returned an activity in the data set with SARS-CoV-2 spike protein of 7.8 nM.

B4: DNA aptamer 2 (ssDNA)
DNA: ATCCAGAGTGACGCAGCATCGAGTGGTGGGCTGGTCGGGTTTGGATTCCCTTAGATGCTGGACACGGTGGCTTAGT
As for B4, the activity with SARS-CoV-2 spike protein was 8 nM.

B5: DNA aptamer 3 (ssDNA)
DNA: ATCCAGAGTGACGCAGCACTGCGTAGGCGCGGCCAATGTGTAGGATTGCTCAGGTCTGCTGGACACGGTGGCTTAGT
In turn, B5 yielded an activity in the data set with SARS-CoV-2 spike protein of 10 nM.

B6: DNA aptamer 8 (ssDNA)
DNA: ATCCAGAGTGACGCAGCATTTCATCGGGTCCAAAAGGGGCTGCTCGGGATTGCGGATATGGACACGT
In turn, B6 yielded an activity with SARS-CoV-2 spike protein of 8.9 nM.

B7: DNA aptamer 4 (ssDNA)
DNA: ATCCAGAGTGACGCAGCATTTCATCGGGTCCAAAAGGGGCTGCTCGGGATTGCGGATATGGACACGGTGGCTTAGT
Molecule B7 had an activity with SARS-CoV-2 spike protein of 9 nM.
